Changes are numbered by the printed parent chain. Where “and” joins values, the source holds several entries; their conditions need not be identical. Equal values may be shown once. Read-outs that look alike come from different tables or passages of the source.
Experiments:
Format in all cases: cell-based
[1] = biological target: T1, C3aR S26^1.35A (Homo sapiens, UniProt Q16581, S26A); test: GloSensor-based cAMP assay, C3aR mutant S26A; details: for Mean Diff. of pIC50, WT vs. S26A: Dunnett's multiple comparisons test, WT minus mutant; for ΔpIC50 ± SE of Diff.: S26^1.35A relative to WT C3aR; for cAMP response (% Forskolin): S261.35A
T1 construct: expressed in transfected cells; host or cells: HEK293T
T1 sequence (Q16581 1-482 S26A): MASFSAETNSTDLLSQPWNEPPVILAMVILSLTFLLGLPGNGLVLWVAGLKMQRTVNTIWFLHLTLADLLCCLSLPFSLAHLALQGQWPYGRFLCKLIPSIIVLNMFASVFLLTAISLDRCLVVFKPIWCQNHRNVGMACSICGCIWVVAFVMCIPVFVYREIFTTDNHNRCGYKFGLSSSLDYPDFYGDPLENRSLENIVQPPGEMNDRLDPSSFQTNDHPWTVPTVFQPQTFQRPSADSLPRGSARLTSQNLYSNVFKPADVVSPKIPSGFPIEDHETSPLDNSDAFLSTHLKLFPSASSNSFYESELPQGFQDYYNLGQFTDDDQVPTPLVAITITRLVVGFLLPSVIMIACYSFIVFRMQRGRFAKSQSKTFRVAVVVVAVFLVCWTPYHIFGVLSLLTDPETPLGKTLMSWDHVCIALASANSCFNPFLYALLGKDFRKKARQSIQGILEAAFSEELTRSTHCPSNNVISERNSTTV
Procedure: (§1) HEK293T cells were seeded on 6-well plates (NEST) and transfected with pGlosensor™-22F plasmids (Promega) and pcDNA3.1 plasmids encoding C3aR or its mutants an with N-terminal FLAG tag. After 48 h, cells were detached with Accutase solution (Sigma-Aldrich) and washed with PBS, and resuspended in assay buffer (CO2-independent medium with 0.5 mg mL^−1D-luciferin). 100,000–200,000 cells were seeded on 96-well white bottom plates (SPL) and incubated at 37 °C for 45 min followed by 45 min incubation at room temperature. After 90 min of incubation, basal luminescence signals were recorded. In total, 25 μl of test ligand with various concentrations and 1 μM Forskolin (Sigma-Aldrich) were treated to the cells and luminescence signals were measured by Tristar 2 LB 942 multimode reader (Berthold). […] Relative luminescence unit (%) was calculated with the signal of wells treated with vehicle as 0% and the signal of wells treated with 1 μM Forskolin as 100% (DiRaddo et al, [2014]). Nonlinear regression was performed using a three-parameter logistic equation.

[2] = biological target: T2, C3aR I102^3.32A/I421^7.39A (Homo sapiens, UniProt Q16581, I102A/I421A); test: GloSensor-based cAMP assay, C3aR double mutant I102A/I421A; details: for ΔpIC50 ± SE of Diff.: I102^3.32A/I421^7.39A relative to WT C3aR; for cAMP response (% Forskolin): single replicates
T2 construct: expressed in transfected cells; host or cells: HEK293T
T2 sequence (Q16581 1-482 I102A/I421A): T1 sequence (Q16581 1-482 S26A) with A26S, I102A, I421A
Procedure: as §1

[3] = biological target: T3, C3aR Y393^6.51A (Homo sapiens, UniProt Q16581, Y393A); test: GloSensor-based cAMP assay, C3aR mutant Y393A; details: for cAMP response (% Forskolin): Y3936.51A
T3 construct: expressed in transfected cells; host or cells: HEK293T
T3 sequence (Q16581 1-482 Y393A): T1 sequence (Q16581 1-482 S26A) with A26S, Y393A
Procedure: as §1

[4] = Log[C3a (M)] -7, single replicates
[5] = Log[C3a (M)] -8, single replicates
[6] = Log[C3a (M)] -9, single replicates
[7] = Log[C3a (M)] -10, single replicates
[8] = Log[C3a (M)] -11, single replicates
[9] = Log[C3a (M)] -12, single replicates

## Cc1cc(C(c2ccc(Cl)cc2)c2ccc(Cl)cc2)sc1C(=O)N[C@@H](CCCNC(=N)N)C(=O)O [JR14a, reference compound]
[1]
  Mean Diff. of pIC50, WT vs. S26A: -0.137
  ΔpIC50 ± SE of Diff.: 0.14 ± 0.07
[1]; IC50, S26^1.35A, dose-response plot
  IC50: 5.58 nM
[1]; S26A, Log[JR14a (M)] -6, single replicates, read-out: cAMP response (% Forskolin)
  remaining activity at 1 µM: 7.75%
[1]; S26A, Log[JR14a (M)] -7, single replicates, read-out: cAMP response (% Forskolin)
  remaining activity at 0.1 µM: 8.58%
[1]; S26A, Log[JR14a (M)] -10, single replicates, read-out: cAMP response (% Forskolin)
  remaining activity at 0.0001 µM: 91.9%
[1]; S26A, Log[JR14a (M)] -11, single replicates, read-out: cAMP response (% Forskolin)
  remaining activity at 10 pM: 96.7%
[1]; pIC50 (Replicate), S26^1.35A, individual replicates
  IC50: 1.62 nM and 4.57 nM and 7.41 nM
[1]; pIC50 ± SEM (Mean), S26^1.35A, mean of independent experiments
  IC50: 3.8 nM
[2]
  ΔpIC50 ± SE of Diff.: -2.34 ± 0.08
[2]; IC50, I102^3.32A/I421^7.39A, dose-response plot
  IC50: 1590 nM
[2]; pIC50 (Replicate), I102^3.32A/I421^7.39A, individual replicates
  IC50: 2450 nM and 1150 nM and 1740 nM
[2]; pIC50 ± SEM (Mean), I102^3.32A/I421^7.39A, mean of independent experiments
  IC50: 1700 nM
[3]; IC50, Y393^6.51A, dose-response plot
  IC50: 312 nM
[3]; Y393A, Log[JR14a (M)] -6, single replicates, read-out: cAMP response (% Forskolin)
  remaining activity at 1 µM: 21.8%
[3]; Y393A, Log[JR14a (M)] -7, single replicates, read-out: cAMP response (% Forskolin)
  remaining activity at 0.1 µM: 72.2%
[3]; Y393A, Log[JR14a (M)] -8, single replicates, read-out: cAMP response (% Forskolin)
  remaining activity at 0.01 µM: 96.3%
[3]; Y393A, Log[JR14a (M)] -10, single replicates, read-out: cAMP response (% Forskolin)
  remaining activity at 0.0001 µM: 94.3%
[3]; Y393A, Log[JR14a (M)] -11, single replicates, read-out: cAMP response (% Forskolin)
  remaining activity at 10 pM: 93.5%
[3]; pIC50 (Replicate), Y393^6.51A, individual replicates
  IC50: 309 nM and 398 nM and 263 nM
[3]; pIC50 ± SEM (Mean), Y393^6.51A, mean of independent experiments
  IC50: 316 nM

## C3a: anaphylatoxin C3a, natural peptide ligand of C3aR (a 77-amino acid peptide), Sigma-Aldrich
[1]
  Mean Diff. of pIC50, WT vs. S26A: 0.018
  ΔpIC50 ± SE of Diff.: -0.018 ± 0.007
[1]; S26^1.35A, dose-response plot, read-out: IC50
  IC50: 2.4 nM
[1]; S26^1.35A, individual replicates
  pIC50 (Replicate): 8.46 and 8.90 and 8.92 and 8.44
[1]; S26^1.35A, mean of independent experiments
  pIC50 ± SEM (Mean): 8.68
[1]; [4]
  cAMP response (% Forskolin): 6.63 % Forskolin and 16.74 % Forskolin and 7.89 % Forskolin and 6.95 % Forskolin
[1]; [5]
  cAMP response (% Forskolin): 10.18 % Forskolin and 21.44 % Forskolin and 11.61 % Forskolin and 10.34 % Forskolin
[1]; [6]
  cAMP response (% Forskolin): 93.63 % Forskolin and 62.67 % Forskolin and 56.93 % Forskolin and 99.13 % Forskolin
[1]; [7]
  cAMP response (% Forskolin): 100.97 % Forskolin and 93.52 % Forskolin and 93.48 % Forskolin and 106.03 % Forskolin
[1]; [8]
  cAMP response (% Forskolin): 99.94 % Forskolin and 102.62 % Forskolin and 98.56 % Forskolin and 106.48 % Forskolin
[1]; [9]
  cAMP response (% Forskolin): 101.64 % Forskolin and 96.07 % Forskolin and 97.79 % Forskolin and 99.89 % Forskolin
[2]; I102A/I421A, Log[C3a (M)] -7
  cAMP response (% Forskolin): 60.33 % Forskolin and 51.98 % Forskolin and 58.06 % Forskolin
[2]; I102A/I421A, Log[C3a (M)] -8
  cAMP response (% Forskolin): 94.58 % Forskolin and 89.45 % Forskolin and 91.46 % Forskolin
[2]; I102A/I421A, Log[C3a (M)] -9
  cAMP response (% Forskolin): 96.12 % Forskolin and 94.02 % Forskolin and 96.29 % Forskolin
[2]; I102A/I421A, Log[C3a (M)] -10
  cAMP response (% Forskolin): 100.40 % Forskolin and 98.48 % Forskolin and 97.75 % Forskolin
[2]; I102A/I421A, Log[C3a (M)] -11
  cAMP response (% Forskolin): 101.76 % Forskolin and 98.75 % Forskolin and 98.69 % Forskolin
[2]; I102A/I421A, Log[C3a (M)] -12
  cAMP response (% Forskolin): 99.03 % Forskolin and 95.31 % Forskolin and 95.64 % Forskolin
[2]
  ΔpIC50 ± SE of Diff.: -0.51 ± 0.05
[2]; I102^3.32A/I421^7.39A, dose-response plot, read-out: IC50
  IC50: 10.1 nM
[2]; I102^3.32A/I421^7.39A, individual replicates
  pIC50 (Replicate): 8.09 and 7.94 and 7.95
[2]; I102^3.32A/I421^7.39A, mean of independent experiments
  pIC50 ± SEM (Mean): 7.99
[2]; I1023.32A/I4217.39A, Log[C3a (M)] -7
  cAMP response (% Forskolin): 17.14 % Forskolin and 17.92 % Forskolin and 21.78 % Forskolin
[2]; I1023.32A/I4217.39A, Log[C3a (M)] -8
  cAMP response (% Forskolin): 50.03 % Forskolin and 58.06 % Forskolin and 57.92 % Forskolin
[2]; I1023.32A/I4217.39A, Log[C3a (M)] -9
  cAMP response (% Forskolin): 101.91 % Forskolin and 104.37 % Forskolin and 102.64 % Forskolin
[2]; I1023.32A/I4217.39A, Log[C3a (M)] -10
  cAMP response (% Forskolin): 108.19 % Forskolin and 105.12 % Forskolin and 103.38 % Forskolin
[2]; I1023.32A/I4217.39A, Log[C3a (M)] -11
  cAMP response (% Forskolin): 107.31 % Forskolin and 106.77 % Forskolin and 101.12 % Forskolin
[2]; I1023.32A/I4217.39A, Log[C3a (M)] -12
  cAMP response (% Forskolin): 98.25 % Forskolin and 100.53 % Forskolin and 100.03 % Forskolin
[3]; Y393^6.51A relative to WT C3aR
  ΔpIC50 ± SE of Diff.: -1.34 ± 0.2
[3]; Y393^6.51A, dose-response plot, read-out: IC50
  IC50: 35.3 nM
[3]; Y393^6.51A, mean of independent experiments
  pIC50 ± SEM (Mean): 7.26
[3]; [4]
  cAMP response (% Forskolin): 22.11 % Forskolin and 35.95 % Forskolin and 17.03 % Forskolin and 39.16 % Forskolin and 16.00 % Forskolin and 10.74 % Forskolin
[3]; [5]
  cAMP response (% Forskolin): 77.53 % Forskolin and 92.37 % Forskolin and 48.78 % Forskolin and 85.94 % Forskolin and 83.42 % Forskolin and 59.04 % Forskolin
[3]; [6]
  cAMP response (% Forskolin): 100.98 % Forskolin and 105.20 % Forskolin and 100.01 % Forskolin and 92.90 % Forskolin and 94.02 % Forskolin and 86.75 % Forskolin
[3]; [7]
  cAMP response (% Forskolin): 91.84 % Forskolin and 102.66 % Forskolin and 96.87 % Forskolin and 100.10 % Forskolin and 89.56 % Forskolin and 88.42 % Forskolin
[3]; [8]
  cAMP response (% Forskolin): 102.78 % Forskolin and 104.06 % Forskolin and 100.84 % Forskolin and 95.25 % Forskolin and 103.11 % Forskolin and 88.56 % Forskolin
[3]; [9]
  cAMP response (% Forskolin): 99.54 % Forskolin and 99.47 % Forskolin and 94.11 % Forskolin and 90.18 % Forskolin and 94.48 % Forskolin and 86.37 % Forskolin
